One may read the Kd as the concentration at which binding is half-saturated.

Test [1] concerns the target Peptide ligand: GluN2B (TAMRA-NNG-…). The experiment in a line: fluorescence polarisation. For orientation: In fluorescence polarisation assays a small probe gives low polarisation when free and higher when bound to something large.
The target in test [2] is Peptide ligand: Stargazin (TAMRA-NNG-…). Kind of test: fluorescence polarisation.

For the substance PSD-95 PDZ1 6xHis (domain or fragment), the Kd came out at 12.4 µM in test [1] and 27.3 µM in test [2].

On to “PSD-95 PDZ1-2 6xHis (domain or fragment)”, for which, in test [1], the Kd was 1.9 µM.

Values taken from PMC8567388.
